US20050002923A1 (published 2005)

Key:
[1] = target: UvrA2 Δβh UvrB (Bca) UvrB deletion Gln97-Asp112 replaced by Gly (Bacillus caldotenax) (UniProt P56981); details: UV damage, 200 J/m2; ATPase; 19.0 without DNA
[2] = system: UvrA (Bca) (Bacillus caldotenax); details: UV damage, 200 J/m2; ATPase; 13.2 without DNA; 37 C
[3] = system: UvrA2UvrB (Bca) (Bacillus caldotenax); details: UV damage, 200 J/m2; ATPase; 18.3 without DNA
[4] = system: UvrA (Eco) (Escherichia coli); details: ATPase inhibited 23% by 0.224 nM dsDNA (control 71.5), 37 C
[5] = system: UvrA (Bca) (Bacillus caldotenax); details: ATPase stimulated about 10-fold by 5.6 nM dsDNA (control 4.42; 18.4 at 0.224 nM), 37 C
[6] = system: Bca UvrA + Eco UvrB + Eco UvrC (Bacillus caldotenax / Escherichia coli); test: cleavage_in_vitro; details: central (+)-trans-BPDE-N2-guanine adduct; 10 nM UvrA, 100 nM UvrB, 5 nM UvrC, 37 C 20 min; 83% and 60% after UvrA preincubation at 65 C for 10 and 30 min; figure legend says cis adduct, text says trans
[7] = system: Eco UvrA + Eco UvrB + Eco UvrC (Escherichia coli); test: cleavage_in_vitro; details: central (+)-trans-BPDE-N2-guanine adduct; 37 C 20 min; abolished by UvrA preincubation at 65 C for 10 min; figure legend says cis adduct, text says trans
[8] = system: UvrA (Eco) (Escherichia coli); test: EMSA; details: central (+)-trans-BPDE-N2-guanine adduct; CITED Zou et al. 1998; cited from earlier work
[9] = target: Bca UvrA + Eco UvrB (Bacillus caldotenax / Escherichia coli) (UniProt P0A8F8); test: EMSA; details: central (+)-trans-BPDE-N2-guanine adduct; 10 nM UvrA, 100 nM Eco UvrB, 1 mM ATP, 10 mM MgCl2, 37 C; all substrate bound at 250 nM Eco UvrB
[10] = system: UvrA (Bca) (Bacillus caldotenax); test: EMSA; details: central (+)-trans-BPDE-N2-guanine adduct; ABC buffer, 10 mM MgCl2, 1 mM ATP, 37 C, 20 min; fitted as UvrA dimer
[11] = target: T1, Bacillus caldotenax (Bca) UvrA protein
T1 chain: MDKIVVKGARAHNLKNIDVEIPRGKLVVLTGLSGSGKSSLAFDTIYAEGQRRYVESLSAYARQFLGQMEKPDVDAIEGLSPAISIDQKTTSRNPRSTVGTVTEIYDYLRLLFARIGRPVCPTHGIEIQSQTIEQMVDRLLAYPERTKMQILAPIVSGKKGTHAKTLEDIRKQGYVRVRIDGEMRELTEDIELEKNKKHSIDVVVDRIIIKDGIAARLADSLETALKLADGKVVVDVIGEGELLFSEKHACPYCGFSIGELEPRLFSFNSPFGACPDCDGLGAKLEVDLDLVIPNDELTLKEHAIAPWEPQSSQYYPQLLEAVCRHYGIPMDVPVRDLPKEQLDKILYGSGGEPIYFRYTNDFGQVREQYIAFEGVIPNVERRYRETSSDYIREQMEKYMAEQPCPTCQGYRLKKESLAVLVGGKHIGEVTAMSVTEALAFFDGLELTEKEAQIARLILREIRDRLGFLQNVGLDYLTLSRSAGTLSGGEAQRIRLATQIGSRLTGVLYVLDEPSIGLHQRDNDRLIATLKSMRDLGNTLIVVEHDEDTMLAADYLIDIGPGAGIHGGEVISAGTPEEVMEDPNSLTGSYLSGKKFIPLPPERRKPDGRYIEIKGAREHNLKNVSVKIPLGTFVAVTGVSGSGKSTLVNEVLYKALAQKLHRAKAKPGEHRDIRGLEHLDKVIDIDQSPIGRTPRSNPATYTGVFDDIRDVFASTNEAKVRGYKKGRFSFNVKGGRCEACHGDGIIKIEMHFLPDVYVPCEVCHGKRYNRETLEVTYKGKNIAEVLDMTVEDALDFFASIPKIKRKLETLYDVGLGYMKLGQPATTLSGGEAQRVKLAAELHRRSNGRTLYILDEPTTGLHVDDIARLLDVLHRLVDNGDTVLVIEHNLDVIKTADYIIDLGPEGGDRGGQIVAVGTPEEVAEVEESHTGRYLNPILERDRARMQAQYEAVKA

E. coli UvrB protein = target: T2, E. coli UvrB protein (Escherichia coli, UniProt A7ZJI8 1-673); test: gel mobility shift with BPDE-DNA substrate, 37° C.
T2 construct: also called Eco UvrB; UvrB (Eco)
T2 sequence: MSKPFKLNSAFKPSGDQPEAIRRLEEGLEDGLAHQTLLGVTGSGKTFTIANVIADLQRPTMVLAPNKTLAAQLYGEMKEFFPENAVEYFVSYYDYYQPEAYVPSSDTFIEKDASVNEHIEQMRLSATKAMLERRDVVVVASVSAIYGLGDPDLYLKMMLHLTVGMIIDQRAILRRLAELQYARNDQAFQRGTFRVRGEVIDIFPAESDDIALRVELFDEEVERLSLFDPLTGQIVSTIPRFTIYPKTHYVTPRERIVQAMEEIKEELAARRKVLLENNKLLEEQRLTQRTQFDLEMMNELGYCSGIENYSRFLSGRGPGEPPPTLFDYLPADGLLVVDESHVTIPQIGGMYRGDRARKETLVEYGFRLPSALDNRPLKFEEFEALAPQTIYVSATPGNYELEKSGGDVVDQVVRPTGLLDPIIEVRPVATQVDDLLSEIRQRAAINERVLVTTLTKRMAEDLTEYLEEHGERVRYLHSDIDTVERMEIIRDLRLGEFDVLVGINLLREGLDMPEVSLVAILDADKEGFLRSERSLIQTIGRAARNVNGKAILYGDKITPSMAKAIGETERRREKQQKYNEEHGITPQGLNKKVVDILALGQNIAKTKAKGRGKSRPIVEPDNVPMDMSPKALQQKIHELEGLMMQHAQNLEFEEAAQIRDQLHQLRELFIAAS

Molecule: UV-irradiated pUC18 DNA
- activity (mol ATP/mol protein/min) [1]: 29
- activity (mol ATP/mol protein/min) [2]: 17
- activity (mol ATP/mol protein/min) [3]: 22

Molecule: pGL-2 plasmid DNA (undamaged)
- activity (uM ADP/min/uM UvrA) [4]: 55.4
- activity (uM ADP/min/uM UvrA) [5]: 45.6

Molecule: (+)-trans-BPDE-N2-dG 50-bp duplex
- activity [6]: 89 % incised
- activity [7]: 67 % incised
- Kd [8]: 7.5 nM
- binding (% bound as UvrB-DNA) [9]: > 50
- Kd [10]: 25 nM

B1: Bacillus caldotenax (Bca) UvrB protein, wild type (protein)
chain: VEGRFQLVAPYEPQGDQPQAIAKLVDGLRRGVKHQTLLGATGTGKTFTISNVIAQVNKPTLVIAHNKTLAGQLYSELKEFFPHNAVEYFVSYYDYYQPEAYVPQTDTYIEKDAKINDEIDKLRHSATSALFERRDVIIVASVSCIYGLGSPEEYRELVVSLRVGMEIERNALLRRLVDIQYDRNDIDFRRGTFRVRGDVVEIFPASRDEHCIRVEFFGDEIERIREVDALTGEVLGEREHVAIFPASHFVTREEKMRLAIQNIEQELEERLAELRAQGKLLEAQRLEQRTRYDLEMMREMGFCSGIENYSRHLALRPPGSTPYTLLDYFPDDFLIIVDESHVTLPQLRGMYNGDRARKQVLVDHGFRLPSALDNRPLTFEEFEQKINQIIYVSATPGPYELEHSPGVVEQIIRPTGLLDPTIDVRPTKGQIDDLIGEIRERVERNERTLVTTLTKKMAEDLTDYLKEAGIKVAYLHSEIKTLERIEIIRDLRLGKYDVLVGINLLREGLDIPEVSLVAILDADKEGFLRSERSLIQTIGRAARNANGHVIMYADTITKSMEIAIQETKRRRAIQEEYNRKHGIVPRTVKKEIRDVIRATYAAEETEMYEAKPAAAMTKQEREELIRTLEAEMKEAAKALDFERAAQLRDIIFELKAEG
- ATPase activity (mol of ATP hydrolyzed/mol of protein/min) [11]: 18.3
- ATPase activity (with UV-irradiated DNA) (mol of ATP hydrolyzed/mol of protein/min) [11]: 22

B2: Bacillus caldotenax (Bca) UvrA protein (enzyme)
chain: T1 chain
notes: Full-length recombinant protein made in E. coli as a UvrA-intein-CBD fusion and released by DTT cleavage; also called B. caldotenax UvrA; UvrASD
- binding result (E. coli UvrB protein): binds

B3: β-hairpin deletion mutant of B. caldotenax UvrB (Δβh UvrB) (protein)
chain: VEGRFQLVAPYEPQGDQPQAIAKLVDGLRRGVKHQTLLGATGTGKTFTISNVIAQVNKPTLVIAHNKTLAGQLYSELKEFFPHNAVEYFVSYYDYYGAKINDEIDKLRHSATSALFERRDVIIVASVSCIYGLGSPEEYRELVVSLRVGMEIERNALLRRLVDIQYDRNDIDFRRGTFRVRGDVVEIFPASRDEHCIRVEFFGDEIERIREVDALTGEVLGEREHVAIFPASHFVTREEKMRLAIQNIEQELEERLAELRAQGKLLEAQRLEQRTRYDLEMMREMGFCSGIENYSRHLALRPPGSTPYTLLDYFPDDFLIIVDESHVTLPQLRGMYNGDRARKQVLVDHGFRLPSALDNRPLTFEEFEQKINQIIYVSATPGPYELEHSPGVVEQIIRPTGLLDPTIDVRPTKGQIDDLIGEIRERVERNERTLVTTLTKKMAEDLTDYLKEAGIKVAYLHSEIKTLERIEIIRDLRLGKYDVLVGINLLREGLDIPEVSLVAILDADKEGFLRSERSLIQTIGRAARNANGHVIMYADTITKSMEIAIQETKRRRAIQEEYNRKHGIVPRTVKKEIRDVIRATYAAEETEMYEAKPAAAMTKQEREELIRTLEAEMKEAAKALDFERAAQLRDIIFELKAEG
- ATPase activity (mol of ATP hydrolyzed/mol of protein/min) [11]: 19
- ATPase activity (with UV-irradiated DNA) (mol of ATP hydrolyzed/mol of protein/min) [11]: 29
